The results in this text go back to patent US20190248902A1 (published 2019).

T1: recombinant, soluble human ASGR-1 (human, UniProt P07306 62-291)
T1 construct: biotinylated in the binning assay; also called soluble huASGR-1; Soluble ASGR-1 (Amgen)
T1 sequence: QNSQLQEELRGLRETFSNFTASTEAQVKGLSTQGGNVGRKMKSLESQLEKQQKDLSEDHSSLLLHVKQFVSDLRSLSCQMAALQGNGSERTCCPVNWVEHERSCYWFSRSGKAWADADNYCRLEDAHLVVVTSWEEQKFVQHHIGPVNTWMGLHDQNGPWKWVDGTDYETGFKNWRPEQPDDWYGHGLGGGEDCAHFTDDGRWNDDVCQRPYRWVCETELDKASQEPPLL

B1: 147D10 (antibody, V domains shown)
VH: EVQLLESGGGLVQPGGSLRLSCAASGFTFSSYAMSWVRQAPGKGLEWVSAISGRGGNTFYADSVKGRFTISRDNSKNTLYLQMNSLRAEDTAVYYCAKKDYDYVWGSPYFDYWGQGTLVTVSS
VL: DIQMTQSPASVSASVGDRVTITCRASQNISNWLTWYQQKPGKAPKLLIYAASSLQSGVPSRFSGSGSGTDFTLSISSLQPEDFATYYCQQTDSFPFTFGPGTKVDVK
notes: hybridoma mAb
B2: 149F8 (antibody, V domains shown)
VH: B1 VH
VL: B1 VL with N28G, T34A, S65N, G66E, T85I
notes: hybridoma mAb
B3: 149D11 (antibody, V domains shown)
VH: B1 VH with L81R
VL: B1 VL
notes: hybridoma mAb
B4: 63A10 (antibody, V domains shown)
VH: EVQLVESGGGLVQPGGSLRLSCAASGFTFSSYSMNWVRQAPGKGLEWVSYISSSTSTIYYAASVKGRFTISRDNAKNSLYLQMNSLRDEDTAVYYCARDHRYYDSSGYYSDAFDIWGQGTMVTVSS
VL: NFMLTQPHSVSESPGKTVTISCTRSNGSIVSNYVQWYQQRPGSSPTTVIYEDKRRPSGVPDRFSGSIDSSSNSASLTISGLKTEDEADYYCQSYDSINVVFGGGTKLTVL
notes: hybridoma mAb
B5: 63G7 (antibody, V domains shown)
VH: B4 VH
VL: B4 VL with V48M, K53S, Y90S, S96G
notes: hybridoma mAb
B6: 6D9 (antibody, V domains shown)
VH: EVQLVESGGGLVKPGGSLRLSCAASGFTFSNAWMNWVRLAPGKGLEWVGRIKSKTDGGTTDYAAPVKGRFTISRDDSENTLYLQMNSLKTEDTAVYYCSTDTGPIAARLAYYYYYAMDVWGQGTTVTVSS
VL: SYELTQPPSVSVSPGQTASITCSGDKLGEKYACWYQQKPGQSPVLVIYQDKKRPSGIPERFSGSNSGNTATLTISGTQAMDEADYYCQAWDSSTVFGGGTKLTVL
notes: hybridoma mAb
B7: 65F10 (antibody, V domains shown)
VH: QVQLVQSGAEVKKPGASVKVSCKASGYTFTGYHMHWVRQAPGQGLEWMGWINPNNGGTSYAQKFQDRVNMTRDTSISTAYMELSRLRSDDTAVYYCARDSRSSWDYWGQGTLVTVSS
VL: DIQMTQSPSSVSASVGDRVTITCRGGQGISTWLAWYQQKPGKAPKLLIYAASILQSGVPSRFRGRGSGTDFTLTISSLQPEDFATYYCQQGNIFPFTFGRGTKVDIK
notes: hybridoma mAb
B8: 6G6 (antibody, V domains shown)
VH: QVQLVQSGAEVRKPGASVKVSCKASGYTFTNYDINWVRQATGQGPEWMGWMHPNSGNTGYAKKFQGRVTMTRNTSISAAYMVLSSLRSEDTAVYYCALSSGWYYFDYWGQGTLVTVSS
VL: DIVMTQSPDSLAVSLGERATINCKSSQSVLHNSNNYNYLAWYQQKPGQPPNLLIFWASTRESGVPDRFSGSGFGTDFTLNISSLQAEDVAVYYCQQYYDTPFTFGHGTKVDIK
notes: hybridoma mAb
B9: 58G11 (antibody, V domains shown)
VH: EVQLVESGGGLVQPGGSLRLSCAASGFTFSSYSMNWVRQAPGKGLEWISYISTSSSTIFYADSVKGRFTISRDSAKNSLYLQMNSLRDEDTAVYYCARGDTAMVLYYYGMDVWGQGTTVTVSS
VL: SYELTQPPSVSVSPGQTASITCSGDKLGDKYASWYQQKPGQSPVLVIYQDNKRPSGIPERFSGSNSGNTATLTISGTQAMDEADYYCQAWNNNTVMFGGGTKLTVL
notes: hybridoma mAb
B10: 59F2 (antibody, V domains shown)
VH: EVQLVESGGGLVQPGGSLRLSCGASGFTFSSYSMNWVRQAPGKGLEWVSYISGSSNIIYYTDSVKGRFTISRDNAKNSLYLQMNSLRDEDTAVYYCARADTPMVLYFYGMDVWGQGTTVTVSS
VL: B9 VL with K38R, N91D, M96V
notes: hybridoma mAb
B11: 60D2 (antibody, V domains shown)
VH: B10 VH with G53E, K76M
VL: B9 VL with D25N, K38R, A79T, N91D, M96V
notes: hybridoma mAb
B12: 60E8 (antibody, V domains shown)
VH: QVQLQESGPGLVRPSATLSLTCTVSGGSISRSSYYWGWIRQPPGKGLEWIGSIYYSGSASYNPSLKSRVTISVDTSENQFSLRLSSVTAADTAVYYCARLDSGWSFDYWGQGTLVTVSS
VL: DIQMTQSPSSLSASVGDRVTFTCRASQGIRNDLGWFQQKPGKAPKRLIYAASSLQSGVPSRFSGSGSGTEFTLTISSLQPEDFATYYCLQHSSYPLTFGGGTKVEIK
notes: hybridoma mAb
B13: 7F4 (antibody, V domains shown)
VH: QLQLQESGPGLVKPSETLSLTCTVSGGSISRSSYYWGWIRQPPGKGLEWIGNIYYSGATYYNPSLKSRVTISVDTSTNQFSLKLSSVTAADTAVYYCARHSGSWSLDYWGQGTLVTVSS
VL: B12 VL with F21I, A25T, F36Y, S53N, S93A
notes: hybridoma mAb
B14: 64B12 (antibody, V domains shown)
VH: B12 VH with V2L, R13K, A16E, G27V, A59T, E77K, R83K
VL: DIQMTQSPSSLSASVGDRVTITCRASQDISNYLNWYQQKPGTAPNLLISDASILETGVPSTFSGSGSGTDFTFTISSLQPEDIATYYCQQSDNLPCSFGQGTKVEIK
notes: hybridoma mAb
B15: 9G9 (antibody, V domains shown)
VH: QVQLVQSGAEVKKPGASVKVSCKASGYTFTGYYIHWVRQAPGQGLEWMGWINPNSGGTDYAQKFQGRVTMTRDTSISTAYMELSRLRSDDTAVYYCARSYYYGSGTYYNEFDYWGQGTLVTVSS
VL: QSVLTQPPSASGTPGQRVNMSCSGTNSNIGSYTVNWYQQLPGTAPKLLIYINNQRPSGVPDRFSGSKSGTSASLAISGLQSEDEADYYCAAWDDSLNGHVVFGGRTKLTVL
notes: hybridoma mAb
B16: 68G6 (antibody, V domains shown)
VH: QVQLVQFGGEVKKPGSSVKVSCKASGYTFTGYYMHWVRQAPGQGLEWMGSIYRNSGGTNYAQKFQGRVTMTRDKSISTAYMEKSRIRSDDTAVYYCARAFYYGSGTYYNEFDYWGQGTLVTVSS
VL: SYEVTQPPSVSVSPGQTASITCSGDKLGDKYTYWYQQKAGQSPFLVIYQDRKRPSGIPDRFSGSNSGNTATLTISGTQAMDAADFYCQAWDNSTAVFGGGTKLTVL
notes: hybridoma mAb
B17: 7E11 (antibody, V domains shown)
VH: QVQLVESGGGVVQPGRSLRLSCAASGFTFSSFGMHWVRQAPGKGLEWVAIIWHDGSNKYYADSVKGRFTISRDNSNNTLYLQMSSLRAEDTAVYYCARDLSMGGMDVWGQGTTVTVSS
VL: DIQMTQSPSSLSASVGDRVTIACRASQNIISYLNWYQQKPGKAPKFLIYTASSLQSGVPSRFSGSGSGTDFTLTISSLQPEDFAIYYCQQTYSTPLTFGGGTKVEIK
notes: hybridoma mAb

Residue numbers refer to the chain shown, from its start.

For one test, the target named is T1, recombinant, soluble human ASGR-1. The experiment in a line: Octet BLI dissociation, pH 7.4 minus calcium. The method, then:
(§1) The relative dissociation of ASGR-1 from antibodies was measured using a label-free assay on an OctetHTX instrument (Fortebio). Antibody samples were captured on anti-HuFc kinetic biosensors (ForteBio cat #18-5064) at 5 ug/mL in assay buffer (10 mM Tris, 0.1% Triton, 150 mM NaCl, 1 mg/mL BSA, 1 mM CaCl2, pH7.4) for three minutes. A one minute baseline stabilization step was performed in assay buffer. Soluble ASGR-1 (Amgen) at 6 ug/ml in assay buffer was added and association to the antibodies was monitored for two minutes. Subsequent dissociation of ASGR-1 from the antibodies was performed by incubating the ASGR-1-mAb complexes for 10 minutes under each of the following conditions:
(§2) The binding signal at the end of the 2 minute association phase for each dissociation experiment was set to 100% and used to represent the maximal level of ASGR-1 binding. After 1 minute of dissociation, the percentage of ASGR-1 remaining bound was calculated. The lower the percent remaining at a given time point indicates increased levels of dissociation in response to the test conditions (ie. different pH and/or calcium concentrations). The change in the percentage of ASGR-1 remaining bound in response to each test condition relative to the percent remaining in the control conditions (ie. pH 7.4+calcium) was determined. Cut-offs for an antibody to be categorized as being sensitive to a particular condition were set to >10% (ie. if >10% of the ASGR-1 dissociates from the antibody under a particular test condition compared to control condition, it was deemed sensitive to that condition). The analysis was done using the 1 minute dissociation time point (except for mAb 149A1 which was binned based on the 4 minute dissociation time point). Using this analysis, the ASGR-1-binding, receptor-ligand blocking antibodies were separated into groups according to their dissociation profiles in response to pH and calcium (Table 7.3). Antibodies belonging to each category were observed.
Turning to B1, the “% Change Compared to pH 7.4 + Calcium” value was determined as 13%.

For B2, the “% Change Compared to pH 7.4 + Calcium” value was determined as 1%.

With B3, the “% Change Compared to pH 7.4 + Calcium” value is 11%.

For the molecule B4, the “% Change Compared to pH 7.4 + Calcium” value was 8%.

With B5, the “% Change Compared to pH 7.4 + Calcium” value was 20%.

Consider B6, for which the “% Change Compared to pH 7.4 + Calcium” value turned out to be 14%.

Regarding B7, the “% Change Compared to pH 7.4 + Calcium” value is 25%.

For the molecule B8, the “% Change Compared to pH 7.4 + Calcium” value was 1%.

Consider B9, for which the “% Change Compared to pH 7.4 + Calcium” value is 38%.

Turning to B10, the “% Change Compared to pH 7.4 + Calcium” value was found to be 48%.

Take B11: the “% Change Compared to pH 7.4 + Calcium” value was determined as 20%.

As for B12, the “% Change Compared to pH 7.4 + Calcium” value was found to be 3%.

On to B13, for which the “% Change Compared to pH 7.4 + Calcium” value was found to be 4%.

Take B14: the “% Change Compared to pH 7.4 + Calcium” value was 6%.

As for B15, the “% Change Compared to pH 7.4 + Calcium” value was 25%.

For B16, the “% Change Compared to pH 7.4 + Calcium” value was determined as 22%.

Consider B17, for which the “% Change Compared to pH 7.4 + Calcium” value was 9%.

A further test has the same target. Put plainly: Octet BLI dissociation, pH 5.6 minus calcium. Here is the method: as §1, §2
Take B1: the “% Change Compared to pH 7.4 + Calcium” value was 11%.

With B2, the “% Change Compared to pH 7.4 + Calcium” value is -1%.

On to B3, for which the “% Change Compared to pH 7.4 + Calcium” value stood at 11%.

B4: the “% Change Compared to pH 7.4 + Calcium” value was 47%.

Regarding B5, the “% Change Compared to pH 7.4 + Calcium” value is 59%.

Turning to B6, the “% Change Compared to pH 7.4 + Calcium” value is 42%.

For the molecule B7, the “% Change Compared to pH 7.4 + Calcium” value stood at 37%.

As for B8, the “% Change Compared to pH 7.4 + Calcium” value was 0%.

With B9, the “% Change Compared to pH 7.4 + Calcium” value was 51%.

On to B10, for which the “% Change Compared to pH 7.4 + Calcium” value came to 74%.

With B11, the “% Change Compared to pH 7.4 + Calcium” value was determined as 49%.

Regarding B12, the “% Change Compared to pH 7.4 + Calcium” value came out at 18%.

Take B13: the “% Change Compared to pH 7.4 + Calcium” value amounted to 9%.

As for B14, the “% Change Compared to pH 7.4 + Calcium” value worked out at 7%.

Take B15: the “% Change Compared to pH 7.4 + Calcium” value came out at 55%.

Take B16: the “% Change Compared to pH 7.4 + Calcium” value amounted to 47%.

Take B17: the “% Change Compared to pH 7.4 + Calcium” value is 14%.

A further test shares this target. The experiment in a line: Octet BLI dissociation, pH 5.6 plus calcium. Here is the method: as §1, §2
Consider B1, for which the “% Change Compared to pH 7.4 + Calcium” value stood at 4%.

Turning to B2, the “% Change Compared to pH 7.4 + Calcium” value is -8%.

On to B3, for which the “% Change Compared to pH 7.4 + Calcium” value turned out to be 3%.

Consider B4, for which the “% Change Compared to pH 7.4 + Calcium” value stood at 3%.

Consider B5, for which the “% Change Compared to pH 7.4 + Calcium” value was determined as 15%.

B6: the “% Change Compared to pH 7.4 + Calcium” value was 25%.

Turning to B7, the “% Change Compared to pH 7.4 + Calcium” value was 18%.

Take B8: the “% Change Compared to pH 7.4 + Calcium” value was -3%.

Turning to B9, the “% Change Compared to pH 7.4 + Calcium” value stood at 12%.

B10: the “% Change Compared to pH 7.4 + Calcium” value amounted to 52%.

For the molecule B11, the “% Change Compared to pH 7.4 + Calcium” value was found to be 42%.

Consider B12, for which the “% Change Compared to pH 7.4 + Calcium” value came out at 11%.

For the molecule B13, the “% Change Compared to pH 7.4 + Calcium” value worked out at 6%.

Consider B14, for which the “% Change Compared to pH 7.4 + Calcium” value is 6%.

As to B15, the “% Change Compared to pH 7.4 + Calcium” value was 38%.

In the case of B16, the “% Change Compared to pH 7.4 + Calcium” value came to 39%.

B17: the “% Change Compared to pH 7.4 + Calcium” value is 5%.
